System: Escherichia coli TOP10
Assay: shrunken log2 fold change of peptide-encoding DNA abundance (4.5 h post-induction vs induction); higher = less antimicrobial activity (less host growth inhibition)
Conditions: time post-induction: 4.5 h; library: site-saturation at positions 5, 18, 19, 20
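Note: peptides expressed intracellularly from a pBAD plasmid library in pooled LB shake-flask culture, induced with 0.3% L-arabinose, DNA abundance read by NGS, three biological replicates, DESeq2 with apeglm shrinkage.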

Row | Sequence | shrunken log2 fold change
1 | RRIRPRPPRLPRPRPRPHTFPRP | -0.667
2 | RRIRIRPPRLPRPRPRPHRGPRP | -0.00841
3 | RRIRGRPPRLPRPRPRPHSYPRP | 0.231
4 | RRIRMRPPRLPRPRPRPCVNPRP | -0.111
5 | RRIRLRPPRLPRPRPRPEIVPRP | 0.0118
6 | RRIRIRPPRLPRPRPRPNFHPRP | -0.52
7 | RRIRMRPPRLPRPRPRPIPWPRP | -0.033
8 | RRIRVRPPRLPRPRPRPTWAPRP | 0.194
9 | RRIRHRPPRLPRPRPRPDGAPRP | -0.0729
10 | RRIRRRPPRLPRPRPRPTLMPRP | 0.581
11 | RRIRSRPPRLPRPRPRPDLYPRP | -0.171
12 | RRIRCRPPRLPRPRPRPAYQPRP | -0.0687
13 | RRIRERPPRLPRPRPRPYDFPRP | -0.0231
14 | RRIRMRPPRLPRPRPRPVNPPRP | 0.00934
15 | RRIRWRPPRLPRPRPRPAFGPRP | 0.53
16 | RRIRKRPPRLPRPRPRPAEFPRP | 0.0773
17 | RRIRQRPPRLPRPRPRPHDMPRP | -0.364
18 | RRIRNRPPRLPRPRPRPAHMPRP | -0.167
19 | RRIRCRPPRLPRPRPRPTTSPRP | -0.0643
20 | RRIRVRPPRLPRPRPRPAEWPRP | 0.129
21 | RRIRTRPPRLPRPRPRPYWNPRP | -0.343
22 | RRIRTRPPRLPRPRPRPRVKPRP | -0.0675
23 | RRIRRRPPRLPRPRPRPGEFPRP | -0.0272
24 | RRIRIRPPRLPRPRPRPGTYPRP | -0.0378
25 | RRIRWRPPRLPRPRPRPNLNPRP | -0.401

Row | Sequence | shrunken log2 fold change
26 | RRIRPRPPRLPRPRPRPCNPPRP | -0.0662
27 | RRIRIRPPRLPRPRPRPDRAPRP | -0.169
28 | RRIRIRPPRLPRPRPRPIQTPRP | -0.0155
29 | RRIRGRPPRLPRPRPRPYLWPRP | 0.146
30 | RRIRPRPPRLPRPRPRPEFTPRP | 0.26
31 | RRIRGRPPRLPRPRPRPYEVPRP | 0.0996
32 | RRIRIRPPRLPRPRPRPKGFPRP | 0.0347
33 | RRIRKRPPRLPRPRPRPWTCPRP | -0.0961
34 | RRIRRRPPRLPRPRPRPYGRPRP | -0.0338
35 | RRIRDRPPRLPRPRPRPGGYPRP | 0.101
36 | RRIRIRPPRLPRPRPRPHQIPRP | -0.423
37 | RRIRARPPRLPRPRPRPCLHPRP | 1.24
38 | RRIRRRPPRLPRPRPRPEYFPRP | 0.2
39 | RRIRKRPPRLPRPRPRPCIGPRP | 0.0382
40 | RRIRDRPPRLPRPRPRPNFRPRP | 0.267
41 | RRIRCRPPRLPRPRPRPSESPRP | 0.258
42 | RRIRSRPPRLPRPRPRPEGVPRP | 0.552
43 | RRIRGRPPRLPRPRPRPEVLPRP | 1.83
44 | RRIRNRPPRLPRPRPRPMDVPRP | 0.0039
45 | RRIRFRPPRLPRPRPRPLDLPRP | -0.366
46 | RRIRYRPPRLPRPRPRPAGVPRP | 0.0619
47 | RRIRPRPPRLPRPRPRPKILPRP | 0.0456
48 | RRIRCRPPRLPRPRPRPSYLPRP | -1
49 | RRIRIRPPRLPRPRPRPTLQPRP | 0.00305
50 | RRIRRRPPRLPRPRPRPKVDPRP | 0.0529

Row | Sequence | shrunken log2 fold change
51 | RRIRRRPPRLPRPRPRPRLNPRP | 0.522
52 | RRIRKRPPRLPRPRPRPNRTPRP | -0.0227
53 | RRIRRRPPRLPRPRPRPSMLPRP | -0.172
54 | RRIRSRPPRLPRPRPRPGFCPRP | 0.108
55 | RRIRKRPPRLPRPRPRPMNLPRP | -0.223
56 | RRIRPRPPRLPRPRPRPFHPPRP | -0.255
57 | RRIRDRPPRLPRPRPRPRYRPRP | -0.101
58 | RRIRERPPRLPRPRPRPVFKPRP | -0.228
59 | RRIRGRPPRLPRPRPRPHIFPRP | 0.224
60 | RRIRLRPPRLPRPRPRPDWIPRP | -0.0697
61 | RRIRYRPPRLPRPRPRPVLWPRP | 0.0894
62 | RRIRWRPPRLPRPRPRPQQNPRP | -0.00819
63 | RRIRMRPPRLPRPRPRPQCRPRP | 0.253
64 | RRIRKRPPRLPRPRPRPTDYPRP | 0.124
65 | RRIRNRPPRLPRPRPRPRLIPRP | 0.0319
66 | RRIRPRPPRLPRPRPRPGFAPRP | 0.318
67 | RRIRGRPPRLPRPRPRPKYPPRP | 0.0365
68 | RRIRSRPPRLPRPRPRPHLVPRP | -0.118
69 | RRIRYRPPRLPRPRPRPPPCPRP | 0.574
70 | RRIRNRPPRLPRPRPRPVAIPRP | -0.507
71 | RRIRKRPPRLPRPRPRPMPIPRP | 0.0778
72 | RRIRFRPPRLPRPRPRPKCTPRP | -0.243
73 | RRIRDRPPRLPRPRPRPHENPRP | 0.116
74 | RRIRHRPPRLPRPRPRPGFCPRP | -0.0484
75 | RRIRGRPPRLPRPRPRPWAFPRP | 0.488

Row | Sequence | shrunken log2 fold change
76 | RRIRVRPPRLPRPRPRPWSDPRP | -0.138
77 | RRIRMRPPRLPRPRPRPVHVPRP | -0.0337
78 | RRIRFRPPRLPRPRPRPANIPRP | -0.0774
79 | RRIRFRPPRLPRPRPRPMNMPRP | -0.546
80 | RRIRHRPPRLPRPRPRPPGNPRP | 0.133
81 | RRIRCRPPRLPRPRPRPYLHPRP | -1.18
82 | RRIRFRPPRLPRPRPRPQMCPRP | -0.119
83 | RRIRCRPPRLPRPRPRPCAAPRP | 0.514
84 | RRIRYRPPRLPRPRPRPMGCPRP | -0.0637
85 | RRIRERPPRLPRPRPRPAQDPRP | 0.00521
86 | RRIRYRPPRLPRPRPRPEAAPRP | 0.319
87 | RRIRSRPPRLPRPRPRPWSFPRP | 0.0324
88 | RRIRRRPPRLPRPRPRPDDNPRP | 0.18
89 | RRIRWRPPRLPRPRPRPMLGPRP | 0.464
90 | RRIRHRPPRLPRPRPRPCAMPRP | -0.257
91 | RRIRSRPPRLPRPRPRPQVRPRP | 0.0563
92 | RRIRSRPPRLPRPRPRPTRNPRP | 0.29
93 | RRIRPRPPRLPRPRPRPTGFPRP | 0.0273
94 | RRIRWRPPRLPRPRPRPHCCPRP | -0.124
95 | RRIRKRPPRLPRPRPRPWTHPRP | 0.0375
96 | RRIRQRPPRLPRPRPRPIRSPRP | -0.0132
97 | RRIRGRPPRLPRPRPRPIIPPRP | -0.212
98 | RRIRVRPPRLPRPRPRPKQWPRP | 0.326
99 | RRIRTRPPRLPRPRPRPYMAPRP | -1.06
100 | RRIRHRPPRLPRPRPRPEVVPRP | -0.018

Row | Sequence | shrunken log2 fold change
101 | RRIRDRPPRLPRPRPRPRDVPRP | 0.128
102 | RRIRIRPPRLPRPRPRPVSMPRP | 0.0888
103 | RRIRTRPPRLPRPRPRPNSYPRP | -0.188
104 | RRIRVRPPRLPRPRPRPQVEPRP | -0.272
105 | RRIRERPPRLPRPRPRPPVHPRP | -0.145
106 | RRIRHRPPRLPRPRPRPVGDPRP | -0.206
107 | RRIRCRPPRLPRPRPRPNDLPRP | 0.0432
108 | RRIRDRPPRLPRPRPRPDFWPRP | 0.596
109 | RRIRWRPPRLPRPRPRPWPWPRP | -0.0737
110 | RRIRSRPPRLPRPRPRPAYIPRP | -0.0884
111 | RRIRGRPPRLPRPRPRPGIFPRP | 0.254
112 | RRIRFRPPRLPRPRPRPCLHPRP | -0.542
113 | RRIRSRPPRLPRPRPRPNECPRP | -0.136
114 | RRIRFRPPRLPRPRPRPRQKPRP | 0.363
115 | RRIRHRPPRLPRPRPRPNFFPRP | 0.307
116 | RRIRSRPPRLPRPRPRPTQHPRP | 0.376
117 | RRIRPRPPRLPRPRPRPDKGPRP | 0.118
118 | RRIRHRPPRLPRPRPRPLCHPRP | -0.44
119 | RRIRCRPPRLPRPRPRPENRPRP | -0.168
120 | RRIRGRPPRLPRPRPRPIMDPRP | 0.0794
121 | RRIRVRPPRLPRPRPRPEVCPRP | 0.0183
122 | RRIRWRPPRLPRPRPRPDIFPRP | -0.029
123 | RRIRHRPPRLPRPRPRPIAPPRP | 0.0449
124 | RRIRRRPPRLPRPRPRPQEMPRP | 0.51
125 | RRIRMRPPRLPRPRPRPSLRPRP | 0.626

Row | Sequence | shrunken log2 fold change
126 | RRIRWRPPRLPRPRPRPDRDPRP | 0.0716
127 | RRIRNRPPRLPRPRPRPKHTPRP | -0.0718
128 | RRIRIRPPRLPRPRPRPPDEPRP | -0.0174
129 | RRIRQRPPRLPRPRPRPLTIPRP | -0.375
130 | RRIRCRPPRLPRPRPRPTPIPRP | 0.244
131 | RRIRPRPPRLPRPRPRPEVMPRP | 0.462
132 | RRIRGRPPRLPRPRPRPQASPRP | 1.03
133 | RRIRPRPPRLPRPRPRPCWGPRP | -0.0769
134 | RRIRTRPPRLPRPRPRPAECPRP | -0.112
135 | RRIRIRPPRLPRPRPRPGETPRP | 0.0122
136 | RRIRLRPPRLPRPRPRPKMGPRP | 0.0108
137 | RRIRQRPPRLPRPRPRPYNFPRP | -0.0266
138 | RRIRPRPPRLPRPRPRPHVDPRP | -0.029
139 | RRIRPRPPRLPRPRPRPCQGPRP | 0.056
140 | RRIRLRPPRLPRPRPRPHASPRP | -0.046
141 | RRIRYRPPRLPRPRPRPEVWPRP | 0.446
142 | RRIRFRPPRLPRPRPRPCFVPRP | -0.578
143 | RRIRLRPPRLPRPRPRPRVQPRP | -0.143
144 | RRIRFRPPRLPRPRPRPGSTPRP | -0.183
145 | RRIRTRPPRLPRPRPRPVSEPRP | 0.135
146 | RRIRDRPPRLPRPRPRPTSSPRP | 0.058
147 | RRIRCRPPRLPRPRPRPKAWPRP | 0.132
148 | RRIRLRPPRLPRPRPRPWHIPRP | 0.0292
149 | RRIRWRPPRLPRPRPRPREWPRP | 1.22
150 | RRIRTRPPRLPRPRPRPRYKPRP | -0.909
